# Results taken from PMC3956856, “Interaction of Kinase-Interaction-Motif Protein Tyrosine Phosphatases with the Mitogen-Activated Protein Kinase ERK2” (PLoS ONE, 2014).
# B1: PTPSL KIMKIS (PTPSL residues 332-373) (peptide, UniProt Q15256 332-373, looked up)
# chain: GLQERRGSNVSLTLDMSSLGNIEPFVSIPTPREKVAMEYLQS
# notes: PTPSL/PTPBR7 (PTPRR), residues 332-373 (KIM and KIS); human is stated for the PTPSL 332-655 construct; Recombinant, not synthetic; source: final SEC
# B2: STEPKIM peptide (STEP residues 213-229) (peptide, UniProt P54830 213-229, looked up)
# peptide: MGLQERRGSNVSLTLDM
# notes: STEP (PTPN5, striatal enriched protein tyrosine phosphatase), residues 213-229 (KIM); mouse is stated for the STEP 213-539 construct; source: synthetic peptide (Biosynthesis, Inc.), HPLC purified, >98% purity
# B3: PTPSLKIM peptide (PTPSL residues 331-348) (peptide, UniProt Q15256 331-348, looked up)
# peptide: IGLQERRGSNVSLTLDMS
# notes: PTPSL/PTPBR7 (PTPRR, PTP STEP-like), residues 331-348 (KIM); human is stated for the PTPSL 332-655 construct; source: synthetic peptide (Biosynthesis, Inc.), HPLC purified, >98% purity
# B4: HePTP: HePTP (residues 15–339), hematopoietic protein tyrosine phosphatase (protein, UniProt P35236 15-339, looked up, fragment)
# chain: TLSLGAAMTQPPPEKTPAKKHVRLQERRGSNVALMLDVRSLGAVEPICSVNTPREVTLHFLRTAGHPLTRWALQRQPPSPKQLEEEFLKIPSNFVSPEDLDIPGHASKDRYKTILPNPQSRVCLGRAQSQEDGDYINANYIRGYDGKEKVYIATQGPMPNTVSDFWEMVWQEEVSLIVMLTQLREGKEKCVHYWPTEEETYGPFQIRIQDMKECPEYTVRQLTIQYQEERRSVKHILFSAWPDHQTPESAGPLLRLVAEVEESPETAAHPGPIVVHCSAGIGRTGCFIATRIGCQQLKARGEVDILGIVCQLRLDRGGMIQTAEQ
# B5: PS_(Chimera) (PTPSL residues 332-373 with STEP residues 257-539) (other, human | mouse, UniProt Q15256 332-373, looked up)
# chain: GLQERRGSNVSLTLDMSSLGNIEPFVSIPTPREKVAMEYLQSASRVLRAEELHEKALDPFLLQAEFFEIPMNFVDPKEYDIPGLVRKNRYKTILPNPHSRVRLTSPDPEDPLSSYINANYIRGYSGEEKVYIATQGPIVSTVADFWRMVWQERTPIIVMITNIEEMNEKCTEYWPEEQVVHDGVEITVQKVIHTEDYRLRLISLRRGTEERSLKHYWFTSWPDQKTPDRAPPLLHLVREVEEAAQQEGPHCSPIIVHCSAGIGRTGCFIATSICCQQLRREGVVDILKTTCQLRQDRGGMIQTCEQYQFVHHAMSLYEKQLSLQS
# notes: PTPSL (PTPRR), residues 332-373 (KIM and KIS); human is stated for the PTPSL 332-655 construct; STEP (PTPN5), residues 257-539 (catalytic domain); mouse is stated for the STEP 213-539 construct; Chimera of PTPSL KIMKIS fused to STEPCAT; source: gene synthesized by DNA 2.0; final SEC
# B6: STEP KIMKIS peptide (STEP residues 213-256) (peptide, UniProt P54830 213-256, looked up)
# peptide: MGLQERRGSNVSLTLDMCTPGCNEEGFGYLVSPREESAHEYLLS
# notes: STEP (PTPN5), residues 213-256 (KIM and KIS); mouse is stated for the STEP 213-539 construct; source: synthetic peptide (Biosynthesis, Inc.), HPLC purified, >98% purity
# Experiments:
# ERK2 [1] = molecular target: T1, ERK2 (Rattus norvegicus, UniProt P63086); test: Isothermal titration calorimetry with ERK2; format: binding
# T1 construct: gene Mapk1; made in house
# Method: The PTPSLKIM peptide (residues 331–348), STEPKIM (residues 213–229) and STEPKIMKIS (residues 213–256) were synthesized, HPLC purified and verified by mass spectrometry (MS) (>98% purity; Biosynthesis, Inc.). Expression and purification of ERK2 and PTPSLKIMKIS (residues 332–373) was carried out as previously described, [15]. PTPSL (residues 332–655, human), STEP (residues 213–539, mouse) and PSChimera (PTPSL residues 332–373 with STEP residues 257–539; gene synthesized by DNA 2.0) were expressed and purified using the protocol previously described in detail for STEPCAT (residues 244–539). The DUSP16 MAPK binding domain (residues 5–138, human) was expressed and purified as previously described. All purified proteins were stored at −80 °C until use at which point they were thawed and exchanged into the appropriate buffer using size exclusion chromatography (SEC; Superdex 75 26/60; GE Healthcare). The final protein buffer was dependent on the experiment performed. For ITC experiments, the final SEC purification was performed in ITC buffer (10 mM Tris pH 7.5, 150 mM NaCl, 0.1 mM EDTA, 0.5 mM TCEP); for SAXS experiments, the final SEC purification was performed in SAXS buffer (50 mM HEPES pH 6.8, 150 mM NaCl, 5 mM dithiothreitol). PTPSLKIM, STEPKIM and STEPKIMKIS peptides were solubilized in ITC buffer prior to ITC measurements.
# ITC experiments were performed at 25 °C using a VP-ITC microcalorimeter (Microcal Inc.). Titrant (10 μL per injection) was injected into the sample cell over a period of 20 seconds with a 250 second interval between titrations to allow for complete equilibration and baseline recovery. 28 injections were delivered during each experiment and the solution in the sample cell was stirred at 307 rpm to ensure rapid mixing. To determine the thermodynamic parameters (ΔH, ΔS, ΔG) and binding constants (K) of the ERK2:PTPSLKIM, ERK2:PTPSL, ERK2:STEP and ERK2:PSChimera interactions, PTPSLKIM, PTPSL, STEP and PSChimera were titrated into ERK2. To determine the same parameters for the ERK2:STEPKIM, ERK2:PTPSLKIMKIS and ERK2:STEPKIMKIS interaction, ERK2 was titrated into the peptides. Titrants were chosen based on the amount of purified protein/peptide available for the experiment. For all titrations the concentrations were slightly varied to ensure independence of the Kd from the protein/peptide concentrations. Data were analyzed with a one-site binding model assuming a binding stoichiometry of 1∶1 using Origin 7.0 software. A nonlinear least-squares algorithm and the titrant and sample cell concentrations were used to fit the heat flow per injection to an equilibrium binding equation, providing values of the stoichiometry (n), change in enthalpy (ΔH) and binding constant (K). All data were repeated in triplicate.
# p38α = details: ref [14], cited from earlier work; for Kd: values previously published, [15], [17], [18]
# From the text: We used ITC measurements to determine the binding affinity of STEP and PTPSL for unphosphorylated ERK2 ( Table 1; Figure S1). […] This complex has a ∼3-times lower Kd (tighter binding) than the next tightest complex, ERK2:PTPSL, and a nearly 70-fold greater affinity than the weakest complex, p38α:HePTP [15]. Like STEP, PTPSL binds ERK2 more tightly (∼3.5-fold) than p38α. We also tested peptides that include the kinase specificity s ... || We also generated a chimeric protein in which we fused the PTPSLKIMKIS to STEPCAT (PSchimera; Figure 1A ). […] Thus, they only adopt a single conformation when they bind their respective MAPKs. This is different from the MAPK-binding domains (MKBD) of MAPK phosphatases (MKP; dual specificity phosphatases; DUSPs), [26]. In MKPs, the KIM sequence is part of a stable, folded domain and thus adopts a single, ordered conformation in both the unbound and MAPK-bound states, [28]. […] Our ... || (+ 1 further places)
# ERK2 [2] = molecular target: T1, ERK2; details: [17], cited from earlier work; for Kd: ERK2, values previously published, ref [14], [15], [18]; for tighter binding to ERK2 than to p38α: HePTP residues 15–339 and HePTP KIM-peptide residues 15–31, ref [16]
# From the text: Over the last years different groups, including ours, have studied the interaction of MAPK regulatory proteins, as well as substrates, with different MAPKs, especially ERK2, p38 and JNK [12]–[17]. However, while a plethora of cell biological data is available, much less systematic interaction data using quantitative methods, such as isothermal titration calorimetry (ITC), has been reported. This is of special interest, as recent studies have shown that while KIM-peptides derived from KIM-containing regulatory proteins and substrates readily discriminate between ERK2/p38 and JNK, they discr ... || We used ITC measurements to determine the binding affinity of STEP and PTPSL for unphosphorylated ERK2 ( Table 1; Figure S1). […] This complex has a ∼3-times lower Kd (tighter binding) than the next tightest complex, ERK2:PTPSL, and a nearly 70-fold greater affinity than the weakest complex, p38α:HePTP [15]. Like STEP, PTPSL binds ERK2 more tightly (∼3.5-fold) than p38α. We also tested peptides that include the kinase specificity s ... || Figure 3 Regulatory protein-MAPK interaction strengths. The binding strengths of each KIM-PTP (KIM peptides and KIM-containing MKBDs (in orange font), light blue; KIMKIS peptides, light purple; proteins, light pink) to p38α and ERK2 represented from weakest to tightest (largest Kd to smallest Kd) binding affinity; ‘^†’ indicates values previously published, [15], [17], [18]. KIM-PTP:MAPK complexes determined to be extended using SAXS written in normal text; KIM-PTP:MAPK complexes determined to be compact written in italics; *, compact nature of the ERK2-PTPSL complex determined by ...
# [3] = molecular target: T2, extracellular signal-regulated kinase 2 (ERK2), unphosphorylated (UniProt P63086 1-358); test: ITC; ERK2 titrated into STEPKIM, PTPSL KIMKIS or STEP KIMKIS in the cell; 25 °C; 10 mM Tris pH 7.5, 150 mM NaCl, 0.1 mM EDTA, 0.5 mM TCEP; one-site model; triplicate; details: both partners purified
# T2 construct: ERK2 (extracellular signal-regulated kinase 2), unphosphorylated; also called MAPK; source: final SEC (Superdex 75 26/60)
# [4] = molecular target: T2, extracellular signal-regulated kinase 2 …; test: ITC; PTPSLKIM, PTPSL, STEP or PSChimera titrated into ERK2 in the cell; 25 °C; 10 mM Tris pH 7.5, 150 mM NaCl, 0.1 mM EDTA, 0.5 mM TCEP; one-site model; triplicate; details: both partners purified
# ERK2 [5] = molecular target: T1, ERK2; details: ref [16], cited from earlier work
# [6] = ERK2:HePTP resting-state complex
molecule,measurement,setting,value
"HePTPKIM: HePTP KIM-peptide (residues 15–31) (TLSLGAAMTQPPPEKTP; KIM peptide; UniProt P35236 15-31, looked up, fragment) [reference compound]",differences in affinity of KIM peptides for ERK2 versus p38α,ERK2 [1]; KIM peptides of the KIM-PTPs,4.0
same,Kd,p38α,5150 ± 1290 nM
same,Kd,ERK2 [2],1280 ± 110 nM
same,tighter binding to ERK2 than to p38α,ERK2 [2],~4 times
"HePTPKIMKIS: HePTP KIMKIS peptide, values previously published (VRLQERRGSNVALMLDVRSLGAVEPICSVNTPREVTLHFLRT)",Kd,ERK2 [2],679 ± 122 nM
B1,Kd,[3],825 nM
B2,Kd,[3],546 nM
B3,Kd,[4],463 nM
same,dH,[4],-23.5 kcal/mol
B4,Kd,p38α,2570 ± 650 nM
same,maximum dimension (Dmax),ERK2 [5]; [6],110 Å
same,radius of gyration (Rg),ERK2 [5]; [6],33.3 Å
same,shape of the complex with ERK2 (in words),"ERK2 [5]; resting-state complex, SAXS",highly extended in solution
same,Kd,ERK2 [2],371 ± 40 nM
same,tighter binding to ERK2 than to p38α,ERK2 [2],~7 times
B5,Kd,[4],47 nM
same,dH,[4],-18.5 kcal/mol
same,relative binding to ERK2 (in words),"ERK2 [1]; ERK2, ITC",binds to ERK2 with about equal binding strength as STEP
same,TΔS,"ERK2 [1]; unphosphorylated ERK2, ITC, 25 °C, 10 mM Tris pH 7.5, 150 mM NaCl, 0.1 mM EDTA, 0.5 mM TCEP, average and standard deviation, triplicate",-8.5 ± 0.7 kcal/mol
same,relative binding to p38α (in words),p38α,binds marginally more tightly to p38α than any of the WT-KIM-PTPs
B6,Kd,[3],123 nM
